Test results reported in PMC9553925.

Columns and labels:
[1] = molecular target: ATP synthase subunit-c (T. brucei) (T. brucei (endogenous in procyclic Lister strain 427)); test: cryo-EM structure; ATP synthase dimers purified from T. brucei procyclic mitochondria in GDN with added β-DDM and phospholipids, pH 8.0; consensus dimer 3.2 Å, membrane region 2.7 Å, peripheral stalk 3.7 Å, rotor 3.7 Å, ten rotational substates 3.5–4.3 Å
[2] = molecular target: Trypanosoma brucei mitochondrial F1Fo ATP synthase (monomer unit of the dimer) (T. brucei (endogenous in procyclic Lister strain 427)) (UniProt P24499); test: as above

Substance	stoichiometry N [1]	stoichiometry N [2]
ATP synthase subunit-c (T. brucei) (natural protein)	10	–
Trypanosoma brucei mitochondrial F1Fo ATP synthase (monomer unit of the dimer) (from UniProt P24499 1-229) (complex)	–	2
